Measured values as given in patent publication US20040166543A1 (Dana-Farber, published 2004).

Legend:
[1] = target: T1, glutathione S-transferase (GST) (UniProt P08515 1-218 = GST); test: GST pull-down, anti-MUC1/CD immunoblot (FIG. 1B)
[2] = target: T1, glutathione S-transferase (GST); test: GST pull-down, anti-MUC1/CD immunoblot (FIG. 4A)

T1 sequence (P08515 whole entry): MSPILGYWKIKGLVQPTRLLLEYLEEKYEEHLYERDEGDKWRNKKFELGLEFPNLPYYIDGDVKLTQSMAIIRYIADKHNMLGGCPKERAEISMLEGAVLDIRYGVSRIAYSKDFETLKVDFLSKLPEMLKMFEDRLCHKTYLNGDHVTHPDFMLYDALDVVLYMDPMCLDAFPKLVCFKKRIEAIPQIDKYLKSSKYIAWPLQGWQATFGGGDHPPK

B1: MUC1/CD (purified hexahistidine tagged MUC1 cytoplasmic domain), unphosphorylated (other)
chain: CQCRRKNYGQLDIFPARDTYHPMSEYPTYHTHGRYVPPSSTDRSPYEKVSAGNGGSSLSYTNPAVAATSANL
notes: also called His-MUC1/CD; MUC1/CD (WT); not shown: hexahistidine tag
B1: no binding [1].

B2: MUC1/CD phosphorylated by c-Src (incubated with c-Src and ATP) (other)
chain: B1 chain
modifications: phosphotyrosine at 46 (YEKV site) and at other sites that are not named; made in vitro with purified c-Src and ATP
notes: also called phosphorylated MUC1/CD; not shown: hexahistidine tag
B2: no binding [2].
